Reference: publication PMC4106346, “The Oligomeric States of the Purified Sigma-1 Receptor Are Stabilized by Ligands*” (The Journal of Biological Chemistry, 2014)

What was measured:
[1] = biological target: the molecule itself; test: SEC; analytical size exclusion chromatography, Yarra SEC-3000, 10 mM HEPES pH 7.2, 150 mM NaCl, 0.3 mM TCEP, 0.018% DDM, column at 20 °C; self-association in protein-detergent micelles
[2] = biological target: the molecule itself; test: SEC-MALS; isolated intermediate oligomer (peak *) of MBP-4A-S1R; Superdex S200, 150 mM NaCl, 5 mM HEPES pH 7.2, 0.018% DDM
[3] = biological target: the molecule itself; test: cross-linking; DSS (150 or 250 μM) on 5 μM isolated peak 1 (oligomer) of MBP-4A-S1R, 2 h at room temperature, with or without 10 μM BD-1047; SDS-PAGE
[4] = biological target: the molecule itself; test: SEC-MALS; isolated peak 1 (largest oligomer) of MBP-4A-S1R; Superdex S200, 150 mM NaCl, 5 mM HEPES pH 7.2, 0.018% DDM

Protein	stoichiometry N [1]	binding result [1]	other results
G91I MBP-4A-S1R (receptor, guinea pig, UniProt Q60492 1-223, looked up, sigma-1 receptor (S1R), guinea pig, 223 amino acids, as m1 with G91I; also called G91I mutation; not shown: MBP with 4-Ala linker, N-terminal, kept) MQWAVGRRWLWVALFLAAVAVLTQIVWLWLGTQNFVFQREEIAQLARQYAGLDHELAFSKLIVELRRLHPVHVLPDEELQWVFVNAGGWMIAMCLLHASLSEYVLLFGTALGSPRHSGRYWAEISDTIISGTFHQWREGTTKSEVFYPGETVVHGPGEATAVEWGPNTWMVEYGRGVIPSTLGFALADTVFSTQDFLTLFYTLRVYARALQLELTTYLFGQDP	~2		
G91L MBP-4A-S1R (receptor, guinea pig, UniProt Q60492 1-223, looked up, sigma-1 receptor (S1R), guinea pig, 223 amino acids, as m1 with G91L; also called G91L mutation; not shown: MBP with 4-Ala linker, N-terminal, kept) MQWAVGRRWLWVALFLAAVAVLTQIVWLWLGTQNFVFQREEIAQLARQYAGLDHELAFSKLIVELRRLHPVHVLPDEELQWVFVNAGGWMLAMCLLHASLSEYVLLFGTALGSPRHSGRYWAEISDTIISGTFHQWREGTTKSEVFYPGETVVHGPGEATAVEWGPNTWMVEYGRGVIPSTLGFALADTVFSTQDFLTLFYTLRVYARALQLELTTYLFGQDP	~4		
MBP-4A-S1R (guinea pig sigma-1 receptor fused to maltose-binding protein through a 4-Ala linker) (receptor, UniProt Q60492 1-223, looked up, sigma-1 receptor (S1R), guinea pig, 223 amino acids; In detergent micelles (DDM); One preparation separates into a 6-8-mer, a tetramer and a monomer; also called nonmutated receptor; nonmutated fusion protein; source: preparative size exclusion chromatography; not shown: MBP with 4-Ala linker, N-terminal, kept) MQWAVGRRWLWVALFLAAVAVLTQIVWLWLGTQNFVFQREEIAQLARQYAGLDHELAFSKLIVELRRLHPVHVLPDEELQWVFVNAGGWMGAMCLLHASLSEYVLLFGTALGSPRHSGRYWAEISDTIISGTFHQWREGTTKSEVFYPGETVVHGPGEATAVEWGPNTWMVEYGRGVIPSTLGFALADTVFSTQDFLTLFYTLRVYARALQLELTTYLFGQDP			stoichiometry N [2]: 4; stoichiometry N [3]: > 4; stoichiometry N [4]: 6 to 8
G88I MBP-4A-S1R (receptor, guinea pig, UniProt Q60492 1-223, looked up, sigma-1 receptor (S1R), guinea pig, 223 amino acids, as m1 with G88I; Named only as one of the substitutions of Ile or Leu at Gly-87, Gly-88 and Gly-91; also called substitution of Ile at Gly-88; not shown: MBP with 4-Ala linker, N-terminal, kept) MQWAVGRRWLWVALFLAAVAVLTQIVWLWLGTQNFVFQREEIAQLARQYAGLDHELAFSKLIVELRRLHPVHVLPDEELQWVFVNAGIWMGAMCLLHASLSEYVLLFGTALGSPRHSGRYWAEISDTIISGTFHQWREGTTKSEVFYPGETVVHGPGEATAVEWGPNTWMVEYGRGVIPSTLGFALADTVFSTQDFLTLFYTLRVYARALQLELTTYLFGQDP		binds	
H97A MBP-4A-S1R (receptor, guinea pig, UniProt Q60492 1-223, looked up, sigma-1 receptor (S1R), guinea pig, 223 amino acids, as m1 with H97A; also called mutation H97A; not shown: MBP with 4-Ala linker, N-terminal, kept) MQWAVGRRWLWVALFLAAVAVLTQIVWLWLGTQNFVFQREEIAQLARQYAGLDHELAFSKLIVELRRLHPVHVLPDEELQWVFVNAGGWMGAMCLLAASLSEYVLLFGTALGSPRHSGRYWAEISDTIISGTFHQWREGTTKSEVFYPGETVVHGPGEATAVEWGPNTWMVEYGRGVIPSTLGFALADTVFSTQDFLTLFYTLRVYARALQLELTTYLFGQDP		binds	
G88L MBP-4A-S1R (receptor, guinea pig, UniProt Q60492 1-223, looked up, sigma-1 receptor (S1R), guinea pig, 223 amino acids, as m1 with G88L; Named only as one of the substitutions of Ile or Leu at Gly-87, Gly-88 and Gly-91; also called substitution of Leu at Gly-88; not shown: MBP with 4-Ala linker, N-terminal, kept) MQWAVGRRWLWVALFLAAVAVLTQIVWLWLGTQNFVFQREEIAQLARQYAGLDHELAFSKLIVELRRLHPVHVLPDEELQWVFVNAGLWMGAMCLLHASLSEYVLLFGTALGSPRHSGRYWAEISDTIISGTFHQWREGTTKSEVFYPGETVVHGPGEATAVEWGPNTWMVEYGRGVIPSTLGFALADTVFSTQDFLTLFYTLRVYARALQLELTTYLFGQDP		binds	
